Test results from publication PMC7111943.

Biological target: T1, GST-N (TGEV nucleocapsid protein) (Transmissible gastroenteritis …, UniProt P04134 1-382)
T1 sequence: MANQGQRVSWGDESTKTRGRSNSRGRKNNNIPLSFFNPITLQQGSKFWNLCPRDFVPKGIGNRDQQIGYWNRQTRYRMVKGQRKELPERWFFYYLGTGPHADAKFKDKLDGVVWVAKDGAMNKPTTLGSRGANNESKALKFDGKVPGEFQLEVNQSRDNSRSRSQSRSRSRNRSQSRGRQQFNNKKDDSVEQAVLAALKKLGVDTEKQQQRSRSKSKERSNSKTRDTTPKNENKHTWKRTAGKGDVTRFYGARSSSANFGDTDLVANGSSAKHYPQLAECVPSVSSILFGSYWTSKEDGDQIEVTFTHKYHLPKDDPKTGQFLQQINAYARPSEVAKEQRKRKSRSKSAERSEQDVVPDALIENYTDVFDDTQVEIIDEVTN
Experiment: EMSA

UCGAACUAAACGAAAU (ssRNA) [TRS-L]: binds.
